# Experimental data from publication PMC7335187 (2020).
# T1: Atg8 (1-116) K26P (S. cerevisiae, UniProt P38182 1-116, K26P)
# T1 sequence: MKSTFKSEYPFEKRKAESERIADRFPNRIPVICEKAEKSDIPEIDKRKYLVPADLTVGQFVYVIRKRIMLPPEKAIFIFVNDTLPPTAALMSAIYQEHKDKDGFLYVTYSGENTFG
# Target: GABARAP WT (human GABARAP 1-116) (human, UniProt O95166 1-116)
# Assay: ITC
# Chain of GABARAP WT (human GABARAP 1-116) (O95166 1-116): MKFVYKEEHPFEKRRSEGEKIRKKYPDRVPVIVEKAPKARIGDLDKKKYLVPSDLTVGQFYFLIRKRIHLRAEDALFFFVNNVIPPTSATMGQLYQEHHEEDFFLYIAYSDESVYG
row,Binder,Kd [µM]
1,NDFEMITKY [SEC62361-368 (Δhelix) peptide],3.38
2,DDFELLDQY [FAM134B453-460 (Δhelix) peptide],2.54
3,GPHSSGNGNDFEMITKEELEQQTDY [SEC62355-376 WT peptide],0.19
4,GPEEDTDTEEGDDFALLDQSALDQIESELY [FAM134B444-470 E456A E462A peptide],3.39
5,GPEEDTDTEEGDDFELLDQSELDQIESELY [FAM134B444-470 WT peptide],0.14

# Target: T1, Atg8 (1-116) K26P
# Assay: ITC
row,Binder,Kd [µM]
1,TSTEFPNDADFMEDILDET [Atg40 peptide Y242A],32.7
2,EFPNDYDFAEDILDET [Atg40^237–252 M245A peptide],21.7
3,TSTEAPNDYDFMEDILDET [Atg40 peptide F238A],4.31
